Data on 14 molecules can be found in publication PMC7939470 (The Journal of Biological Chemistry, 2021).

Where two headings read alike, the source gives them in different places. Where no end group is shown, it is not given here.

One assay relates to RPA70A (RPA70A181–304). Put plainly: Fluorescence polarization anisotropy (FPA) assay, FITC-labeled peptide + RPA70A. Type of assay: binding. The conditions noted are these: 50 nM FITC-labeled peptide, 0–150 μM RPA70A, pH 7.4, 25 °C, anisotropy not saturated, not fitted. How it is done:
RPA70N1–120 and RPA70A181–304 were expressed and purified as described previously ([5], [30]). ^15N-Labeled RPA70N was also expressed and purified with the same method using M9 medium. All of the synthesized peptides except for the FITC-labeled peptide were purchased from Lugen Sci (Gyeonggi-do, Korea). FITC-labeled peptides were purchased from AnyGen (Gwangju, Korea). Purchased peptides were dissolved in 20 mM HEPES, 100 mM NaCl, 2 mM DTT, pH 7.4, buffer to make a 2 mM stock and stored at −20 °C until use.
For FITC labeling, a 6-aminocaproic acid (6-aminohexanoic acid) spacer was used. […] The emission polarization anisotropy was calculated by referring to a previous publication ([5]). The fluorescence was measured using BioTek Cytation5 and GENE5 software (GIST, Gwangju) with excitation and emission wavelengths of 485 and 528 nm, respectively. […] All experiments were repeated three times, and dissociation constants (Kd) were calculated using the “one site–specific” fitting model of the GraphPad software. The equation used in the fitting is as follows, (Eq. 1) y=Bmax×X/Kd+X where y is the fluorescence anisotropy, Bmax is the maximum specific binding, Kd is the equilibrium binding constant, and X is the concentration of RPA. […] Equilibrium fluorescence measurements were performed in the same way as described above. […]

The test system of assay [1] is RPA70N–BLM peptide complex. As to the kind of experiment: Competitive FPA assay, unlabeled pmRPA32 peptide against FITC-labeled BLM peptide on RPA70N. Type of assay: binding. The conditions noted are these: 0–250 μM unlabeled pmRPA32 peptide; 6 μM (BLM153-165) or 13 μM (BLM290-301) RPA70N; 500 nM FITC-labeled BLM peptide; repeated three times; Fig. S4. The protocol: For FITC labeling, a 6-aminocaproic acid (6-aminohexanoic acid) spacer was used. Increasing concentrations (0–150 μM) of RPA70N or RPA70A were prepared in an assay buffer of 20 mM HEPES, 100 mM NaCl, 2 mM DTT, pH 7.4, in Corning 96-well black flat-bottom plates (polystyrene, nontreated). To each well, FITC-RPA32 peptide was added to a final concentration of 50 nM, and the plates were incubated on a shaker for 1 h at 25 °C. The total volume of the reaction sample was 50 μl. The emission polarization anisotropy was calculated by referring to a previous publication ([5]). The fluorescence was measured using BioTek Cytation5 and GENE5 software (GIST, Gwangju) with excitation and emission wavelengths of 485 and 528 nm, respectively. […] All experiments were repeated three times, and dissociation constants (Kd) were calculated using the “one site–specific” fitting model of the GraphPad software. The equation used in the fitting is as follows, (Eq. 1) y=Bmax×X/Kd+X where y is the fluorescence anisotropy, Bmax is the maximum specific binding, Kd is the equilibrium binding constant, and X is the concentration of RPA. […] Equilibrium fluorescence measurements were performed in the same way as described above. […]
Competitive fluorescence polarization anisotropy of BLM peptide, RPA70N, and pmRPA32 peptide. […]

Assay [2] deals with T1, RPA70N (N-terminal domain of RPA70, RPA70N1–120) (Homo sapiens, UniProt P27694).
T1 construct: RPA70N1–120 and RPA70A181–304 were expressed and purified as described previously; made in house
The settings on record: RPA70N binding, cited from earlier work.

In assay [3] the target is T2, RPA70N_(1–120), N-terminal domain of RPA70 (DBD-F) (UniProt P27694 1-120).
T2 construct: Replication protein A 70-kDa subunit (RPA70), N-terminal domain (DBD-F), residues 1-120; Uniformly 15N-labelled in the NMR titrations, unlabelled in the FPA assays; also called 15N-labeled RPA70N; source: 15N-labeled form by the same method using M9 medium
Put plainly: fluorescence polarisation; FPA; 0–150 μM RPA70N or RPA70A titrated to 50 nM FITC-labeled peptide; 20 mM HEPES, 100 mM NaCl, 2 mM DTT, pH 7.4; 1 h at 25 °C; one site–specific fit. The conditions noted are these: both partners purified.

The target of assay [4] is T2, RPA70N_(1–120), N-terminal domain of …. Put plainly: fluorescence polarisation; competitive FPA; 0–250 μM unlabeled pmRPA32 peptide added to 6 μM (for BLM 153-165) or 13 μM (for BLM 290-301) RPA70N and 500 nM FITC-labeled BLM peptide; 20 mM HEPES, 100 mM NaCl, 2 mM DTT, pH 7.4. The settings on record: both partners purified.
The target is the same in assay [5]. As to the kind of experiment: fluorescence polarisation; FPA; 0–150 μM RPA70N or RPA70A titrated to 50 nM FITC-labeled peptide; 20 mM HEPES, 100 mM NaCl, 2 mM DTT, pH 7.4; 1 h at 25 °C; one site–specific fit. The conditions noted are these: both partners purified. The source holds these as a separate data set.
The mark [6] stands for this setting: measured with the same FPA method.

Turning to `C[C@H](NC(=O)CNC(=O)CNC(=O)[C@H](Cc1ccc(O)cc1)NC(=O)[C@H](CC(=O)O)NC(=O)[C@H](CC(=O)O)NC(=O)[C@H](CC(=O)O)NC(=O)CNC(=O)[C@H](Cc1ccc(O)cc1)NC(=O)[C@H](CC(=O)O)NC(=O)CCCCCNC(=S)Nc1ccc2c(c1)C(=O)OC21c2ccc(O)cc2Oc2cc(O)ccc21)C(=O)NCC(=O)NCC(=O)N[C@@H](Cc1ccc(O)cc1)C(=O)N[C@@H](CC(=O)O)C(=O)N[C@@H](CCC(N)=O)C(=O)N[C@@H](CC(=O)O)C(=O)N1CCC[C@H]1C(=O)NCC(=O)NCC(=O)N[C@@H](Cc1ccccc1)C(=O)NCC(=O)N[C@@H](CC(=O)O)C(=O)N1CCC[C@H]1C(=O)N[C@@H](C)C(=O)N1CCC[C@H]1C(=O)N[C@@H](CC(=O)O)C(=O)O` [pmRPA32], the “Binding to RPA70A (in words)” value with RPA70A (RPA70A181–304) is “does not bind”. Further, the “Competition with FITC-labeled BLM peptide for RPA70N” value in assay [1] is given as “did not compete with BLM peptide”.
As for “ATRIP54–68: RPA70N-binding sequence of ATRIP (DFTADDLEELDTLAS; UniProt Q8WXE1 54-68, looked up, fragment)”, the Kd in assay [2] was 28.6 ± 3.1 µM.
Regarding “BLM153–165: acidic RPA70N-binding peptide from the N-terminal region of Bloom syndrome protein (DWDDMDDFDTSET; also: FITC via 6-aminohexanoic acid spacer, end not given here)”, the Kd in assay [2] (setting [6]) is 5.76 ± 0.86 µM.
Turning to “BLM290–301: acidic RPA70N-binding peptide from the N-terminal region of Bloom syndrome protein (EFDDDDYDTDFV; also: FITC via 6-aminohexanoic acid spacer, end not given here)”, the Kd in assay [2] (setting [6]) is 13.5 ± 2.4 µM.
Take “MRE11_539–553: RPA70N-binding sequence of MRE11 (AFSADDLMSIDLAEQ; UniProt P49959 539-553, looked up, fragment)”: the Kd in assay [2] is 65.8 ± 23.7 µM.
Take “RAD9_297–311: RPA70N-binding sequence of RAD9 (DFANDDIDSYMIAME; UniProt Q99638 297-311, looked up, fragment)”: the Kd in assay [2] was 51.4 ± 8.9 µM.
Take “p53_44–58: RPA70N-binding sequence of p53”: the Kd in assay [2] was 99.9 ± 8.4 µM.
For the molecule DAGDDDYGGAGGYDQDPGGFGDPAPD (peptide, UniProt P15927 8-33, looked up, also: FITC with 6-aminohexanoic acid spacer, end not given here) [FITC-labeled pmRPA32-Y9A peptide], the Kd in assay [3] came to 40 ± 0.7 µM.

B1: FITC-labeled BLM_(290-301) peptide (peptide, UniProt P54132 290-301, looked up)
peptide: EFDDDDYDTDFV
modifications: also: FITC via 6-aminohexanoic acid spacer, end not given here
notes: also called BLM peptide; source: synthetic peptide, bought: AnyGen
On to B1, for which the binding result in assay [4] is on record as “binds”.
The molecule DYGDDDYGGAGGYDQDPGGFGDPAPD (peptide, UniProt P15927 8-33, looked up, also: FITC with 6-aminohexanoic acid spacer, end not given here) [FITC-labeled pmRPA32_(8–33) peptide (phosphomimetic RPA32, eight aspartic acids)] showed a Kd in assay [5] of 21.5 ± 0.6 µM.

B2: FITC-labeled BLM_(153-165) peptide (peptide, UniProt P54132 153-165, looked up)
peptide: DWDDMDDFDTSET
modifications: also: FITC via 6-aminohexanoic acid spacer, end not given here
notes: as for B1
Consider B2, for which the binding result in assay [4] is recorded as “binds”.
DYGDDDYGGAGGYDQDPGGAGDPAPD (peptide, UniProt P15927 8-33, looked up, also: FITC with 6-aminohexanoic acid spacer, end not given here) [FITC-labeled pmRPA32-F27A peptide] gave an equilibrium dissociation constant (Kd) in assay [3] of 21.7 ± 0.5 µM.
The same measure, in the same setting: under DYGDDDYGGAGGADQDPGGFGDPAPD (peptide, UniProt P15927 8-33, looked up, also: FITC with 6-aminohexanoic acid spacer, end not given here) [FITC-labeled pmRPA32-Y20A peptide] stands 24.5 ± 0.7 µM.
Still for that read-out and setting: the figure for DYGDDDAGGAGGYDQDPGGFGDPAPD (peptide, UniProt P15927 8-33, looked up, also: FITC with 6-aminohexanoic acid spacer, end not given here) [FITC-labeled pmRPA32-Y14A peptide] is 37 ± 0.6 µM.
